The data set concerns the target T1, CBX8-directed TALE-omega (synthetic construct, UniProt Q56830 SEQ:41-724).
T1 chain: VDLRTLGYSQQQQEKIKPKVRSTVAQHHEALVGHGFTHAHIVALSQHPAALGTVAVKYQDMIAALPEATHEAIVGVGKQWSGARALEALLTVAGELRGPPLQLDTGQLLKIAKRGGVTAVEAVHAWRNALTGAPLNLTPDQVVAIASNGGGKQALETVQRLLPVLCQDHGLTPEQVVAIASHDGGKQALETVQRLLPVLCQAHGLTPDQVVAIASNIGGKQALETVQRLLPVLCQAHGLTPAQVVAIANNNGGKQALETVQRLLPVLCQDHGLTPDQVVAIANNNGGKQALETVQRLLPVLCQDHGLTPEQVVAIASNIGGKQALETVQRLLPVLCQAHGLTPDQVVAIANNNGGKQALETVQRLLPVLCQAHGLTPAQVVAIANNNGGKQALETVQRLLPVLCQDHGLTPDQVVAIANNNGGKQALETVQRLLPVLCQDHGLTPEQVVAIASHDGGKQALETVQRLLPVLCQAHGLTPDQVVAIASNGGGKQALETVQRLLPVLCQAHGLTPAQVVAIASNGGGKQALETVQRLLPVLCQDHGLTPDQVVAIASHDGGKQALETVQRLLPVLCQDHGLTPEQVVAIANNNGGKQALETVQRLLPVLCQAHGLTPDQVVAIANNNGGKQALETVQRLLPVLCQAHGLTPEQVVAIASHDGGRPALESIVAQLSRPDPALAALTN
Nature of the data set: one_hybrid; luciferase induction, 18 aa C-terminus plus GGGGS linker. The note with it: tags: N-terminal FLAG-NLS, C-terminal RNAP omega. The procedure:
This system was used to continuously evolve TALE proteins with novel properties. A series of C-terminal fusions between a previously reported TALE array targeting CBX8 (right half-site TALE)¹⁸, and the RNAP w subunit were tested. […] The sequence specificity of the system was verified using an off-target sequence in the luciferase assay, and performed on- and off-target colorimetric plaque assays using TALE-ω SP and host cells harboring the AP containing the target CBX8 sequence. Similar to the findings with zinc fingers, both luciferase expression and phage propagation were dependent on the presence of the cognate TALE binding site (FIG. 10B). Finally, PACE was performed for 24 h on the cognate AP to optimize the SP backbone.
Luciferase assay. pOH plasmids were transformed by electroporation into S1030 cells, and grown overnight at 37° C. on LB-agar plates supplemented with 50 μg/mL carbenicillin. Single colonies were used to inoculate cultures which were allowed to grow for ˜12 h at 37° C. in DRM supplemented with 50 μg/mL carbenicillin in a shaker. Cultures were diluted to an OD₆₀₀ of ˜0.3 and allowed to grow for an additional 2 h at 37° C. […] 200 μL aliquots of each sample were then transferred to 96-well opaque plates and luminescence and OD₆₀₀ readings were taken using a Tecan Infinite Pro instrument. Luminescence data were normalized to cell density by dividing by the OD₆₀₀ value.

Bounds are passed on as bounds.

B1: CBX8 5'T site (dsDNA)
DNA 1: TTCAGGAGGGCTTCGGC
DNA 2: GCCGAAGCCCTCCTGAA
For B1, the binding signal is above 10 fold.

These data come from patent publication US20240200044, “EVOLUTION OF TALENS” (President and Fellows of Harvard College, published 2024).
